Experimental data published in patent US20040053249A1.

Target: Fas on Jurkat cells (cell line from human T cell) (human) (UniProt P25445)
Assay: cell-based or functional assay

Chain of UniProt P25445 (P25445 26-335): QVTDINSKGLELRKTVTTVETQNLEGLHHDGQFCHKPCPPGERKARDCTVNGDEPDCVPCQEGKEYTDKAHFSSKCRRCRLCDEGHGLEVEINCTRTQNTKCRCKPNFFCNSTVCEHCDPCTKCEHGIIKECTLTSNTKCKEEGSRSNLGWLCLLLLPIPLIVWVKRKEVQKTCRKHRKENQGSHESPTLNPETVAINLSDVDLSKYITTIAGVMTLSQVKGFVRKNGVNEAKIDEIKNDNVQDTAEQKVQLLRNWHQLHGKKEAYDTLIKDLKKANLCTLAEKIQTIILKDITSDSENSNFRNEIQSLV

apoptosis-inducing activity relative to IleZip-shFasL (WST-1 assay, Jurkat cells): 10 times | apoptosis-inducing activity relative to shFasL (WST-1 assay, Jurkat cells): 100 times
Substance: FLAG-IleZip-shFasL (pM1815), fusion protein of FLAG peptide, leucine zipper and the extracellular domain of human Fas ligand
